Laboratory results published in paper PMC2770664.
Where two headings read alike, the source gives them in different places.

T1: HMO2 (NHP10) (Saccharomyces cerevisiae, UniProt Q03435 1-203)
T1 sequence: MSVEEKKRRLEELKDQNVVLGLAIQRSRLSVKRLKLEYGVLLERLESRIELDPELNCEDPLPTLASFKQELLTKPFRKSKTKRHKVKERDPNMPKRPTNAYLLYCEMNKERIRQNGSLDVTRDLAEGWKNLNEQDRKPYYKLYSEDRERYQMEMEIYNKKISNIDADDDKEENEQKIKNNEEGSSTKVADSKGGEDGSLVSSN

B1: 50 bp duplex with tandem AA and CT loops (dsDNA)
DNA 1: ACAGTGGAGTAGGCTACACCTACTCTTTGTAAGAATTTTGCAAAAAGTAC
DNA 2: GTACTTTTTGCAAAATTCAAACAAAGAGTTCGTGTAGCCTACTCCACTGT
B2: 50 bp duplex (dsDNA)
DNA 1: TTCAATCCCCGTCTGTCCCCCGATCCCCTGCTCGTAGGCGTGCTTGACCG
DNA 2: CGGTCAAGCACGCCTACGAGCAGGGGATCGGGGGACAGACGGGGATTGAA

Experiments:
HMO2 (NHP10) [1] = target: T1, HMO2 (NHP10); experiment: EMSA
HMO2 (NHP10) [2] = target: T1, HMO2 (NHP10); experiment: EMSA; remark: listed apart in the source

Row | Binder | binding result (HMO2 (NHP10) [1]) | binding result (HMO2 (NHP10) [2])
1 | B1 | binds | –
2 | B2 | – | no binding
